Assay results reported in patent publication US20190161548A1 (published 2019).
Values belong to the binder of their own block, whether it stands above or below them.

How the values were obtained:
[1] = target: T1, human CTLA-4 expressed on the cell surface (human, UniProt P16410 36-223); experiment: FACS on Jurkat cells which express huCTLA-4 but not PD-1, anti-human Fc secondary
T1 construct: also called huCTLA-4; CHO cells expressing human CTLA-4
T1 sequence: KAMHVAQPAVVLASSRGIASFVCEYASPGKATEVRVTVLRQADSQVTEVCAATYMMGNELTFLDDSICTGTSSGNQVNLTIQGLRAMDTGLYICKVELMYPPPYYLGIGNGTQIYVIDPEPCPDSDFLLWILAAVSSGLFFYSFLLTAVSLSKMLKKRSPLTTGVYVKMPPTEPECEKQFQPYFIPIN
Source text: Binding of the DART and TRIDENT molecules to human CTLA-4 was detected using anti-human FC secondary Ab (FACS).

[2] = target: T2, His-tagged soluble cynomolgus monkey CTLA-4 (cynomolgus monkey, UniProt G7PL88 36-161); experiment: BIACORE (SPR); His-tagged soluble cynomolgus monkey CTLA-4 captured on anti-PentaHis, binding molecule 12.5-200 nM as analyte; affinity by 1:1 Langmuir binding model
T2 construct: extracellular domain; also called Cyno CTLA-4
T2 sequence: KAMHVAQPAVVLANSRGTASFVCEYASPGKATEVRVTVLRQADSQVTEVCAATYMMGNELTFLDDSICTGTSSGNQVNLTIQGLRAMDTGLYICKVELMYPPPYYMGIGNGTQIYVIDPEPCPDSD
Procedure: (§1) Briefly, His-tagged soluble CTLA-4 (an extracellular portion of human or cynomolgus monkey CTLA-4 fused to a histidine-containing peptide) was captured on immobilized anti-PentaHis and then different concentrations (12.5-200 nM) of the CTLA-4 binding molecules were passed over the immobilized CTLA-4 proteins. The kinetics of binding were determined via BIACORE® analysis (affinity by 1:1 Langmuir binding model (simultaneous ka/kd); or avidity by separate ka/kd 1:1 fit).

[3] = target: T2, His-tagged soluble cynomolgus monkey …; experiment: BIACORE (SPR); His-tagged soluble cynomolgus monkey CTLA-4 captured on anti-PentaHis, binding molecule 12.5-200 nM as analyte; avidity by separate ka/kd 1:1 fit
Procedure: as §1

[4] = target: T3, His-tagged soluble human PD-1 (human, UniProt Q15116 25-170); experiment: ELISA; soluble human PD-1 coated; goat anti-human-Fcgamma-HRP, PICO chemiluminescent substrate
T3 construct: also called hPD-1-His; shPD-1
T3 sequence (Q15116 25-170 limits assumed): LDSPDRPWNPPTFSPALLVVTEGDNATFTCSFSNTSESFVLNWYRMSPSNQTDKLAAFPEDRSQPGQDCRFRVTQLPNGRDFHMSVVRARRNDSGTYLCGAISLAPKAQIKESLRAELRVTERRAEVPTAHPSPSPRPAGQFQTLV
Source text: FIGS. 8A-8D show the results of ELISA studies measuring the binding of serially diluted binding molecules to human CTLA-4 and human PD-1. […] Goat anti-human-Fc-HRP (1:10,000) was employed as the secondary detection molecule to detect binding. FIGS. 8C-8D show the results of a study on the effect of altering orientations and binding domains on binding. […] Goat anti-human-Fcγ-HRP was employed as the secondary detection molecule to detect binding using PICO chemiluminescent substrate.
Goat anti-human-Fcγ-HRP was employed as the secondary detection molecule to detect binding using PICO chemiluminescent substrate.

B1: PD-1 mAb 6 G4P (antibody, human IgG4 S228P, kappa, V domains shown)
VH: QVQLVQSGAEVKKPGASVKVSCKASGYSFTSYWMNWVRQAPGQGLEWIGVIHPSDSETWLDQKFKDRVTITVDKSTSTAYMELSSLRSEDTAVYYCAREHYGTSPFAYWGQGTLVTVSS
VL: EIVLTQSPATLSLSPGERATLSCRASESVDNYGMSFMNWFQQKPGQPPKLLIHAASNQGSGVPSRFSGSGSGTDFTLTISSLEPEDFAVYFCQQSKEVPYTFGGGTKVEIKR
notes: IgG4 with stabilized hinge, kappa light chain; also called the PD-1 antibody; parental anti-PD-1 antibody
EC50 [1]: 6.56 nM

B3: DART D (bispecific antibody, human IgG4 S228P)
chain 1: EIVLTQSPATLSLSPGERATLSCRASESVDNYGMSFMNWFQQKPGQPPKLLIHAASNQGSGVPSRFSGSGSGTDFTLTISSLEPEDFAVYFCQQSKEVPYTFGGGTKVEIKGGGSGGGGQVQLVESGGGVVQPGRSLRLSCAASGFTFSSYTMHWVRQAPGKGLEWVTFISYDGSNKHYADSVKGRFTVSRDNSKNTLYLQMNSLRAEDTAIYYCARTGWLGPFDYWGQGTLVTVSSGGCGGGEVAACEKEVAALEKEVAALEKEVAALEKESKYGPPCPPCPAPEFLGGPSVFLFPPKPKDTLYITREPEVTCVVVDVSQEDPEVQFNWYVDGVEVHNAKTKPREEQFNSTYRVVSVLTVLHQDWLNGKEYKCKVSNKGLPSSIEKTISKAKGQPREPQVYTLPPSQEEMTKNQVSLTCLVKGFYPSDIAVEWESNGQPENNYKTTPPVLDSDGSFFLYSRLTVDKSRWQEGNVFSCSVMHEALHNHYTQKSLSLSLG
chain 2: not shown
notes: Four-chain Fc Region-containing diabody, two PD-1 sites (PD-1 mAb 6-ISQ) and two CTLA-4 sites (CTLA-4 mAb 3), IgG4 (YTE) Fc, E/K-coils
Kd [3]: 4.9 nM

Further lines, results first:

Kd [2]: 260 nM
B2: TRIDENT A (bispecific antibody, human IgG4 S228P, kappa)
chain 1: EIVLTQSPATLSLSPGERATLSCRASESVDNYGMSFMNWFQQKPGQPPKLLIHAASNQGSGVPSRFSGSGSGTDFTLTISSLEPEDFAVYFCQQSKEVPYTFGGGTKVEIKGGGSGGGGQVQLVQSGAEVKKPGASVKVSCKASGYSFTSYWMNWVRQAPGQGLEWIGVIHPSDSETWLDQKFKDRVTITVDKSTSTAYMELSSLRSEDTAVYYCAREHYGTSPFAYWGQGTLVTVSSGGCGGGEVAACEKEVAALEKEVAALEKEVAALEKESKYGPPCPPCPAPEFLGGPSVFLFPPKPKDTLYITREPEVTCVVVDVSQEDPEVQFNWYVDGVEVHNAKTKPREEQFNSTYRVVSVLTVLHQDWLNGKEYKCKVSNKGLPSSIEKTISKAKGQPREPQVYTLPPSQEEMTKNQVSLWCLVKGFYPSDIAVEWESNGQPENNYKTTPPVLDSDGSFFLYSRLTVDKSRWQEGNVFSCSVMHEALHNHYTQKSLSLSLG
chain 2: EIVLTQSPATLSLSPGERATLSCRASESVDNYGMSFMNWFQQKPGQPPKLLIHAASNQGSGVPSRFSGSGSGTDFTLTISSLEPEDFAVYFCQQSKEVPYTFGGGTKVEIKGGGSGGGGQVQLVQSGAEVKKPGASVKVSCKASGYSFTSYWMNWVRQAPGQGLEWIGVIHPSDSETWLDQKFKDRVTITVDKSTSTAYMELSSLRSEDTAVYYCAREHYGTSPFAYWGQGTLVTVSSGGCGGGKVAACKEKVAALKEKVAALKEKVAALKE
heavy: QVQLVESGGGVVQPGRSLRLSCAASGFTFSSYTMHWVRQAPGKGLEWVTFISYDGSNKHYADSVKGRFTVSRDNSKNTLYLQMNSLRAEDTAIYYCARTGWLGPFDYWGQGTLVTVSSASTKGPSVFPLAPCSRSTSESTAALGCLVKDYFPEPVTVSWNSGALTSGVHTFPAVLQSSGLYSLSSVVTVPSSSLGTKTYTCNVDHKPSNTKVDKRVESKYGPPCPPCPAPEFLGGPSVFLFPPKPKDTLYITREPEVTCVVVDVSQEDPEVQFNWYVDGVEVHNAKTKPREEQFNSTYRVVSVLTVLHQDWLNGKEYKCKVSNKGLPSSIEKTISKAKGQPREPQVYTLPPSQEEMTKNQVSLSCAVKGFYPSDIAVEWESNGQPENNYKTTPPVLDSDGSFFLVSRLTVDKSRWQEGNVFSCSVMHEALHNRYTQKSLSLSLG
light: not shown

binding result [4]: binds
B4: DART C (bispecific antibody)
chain 1: not shown
chain 2: EIVLTQSPATLSLSPGERATLSCRASESVDNYGMSFMNWFQQKPGQPPKLLIHAASNQGSGVPSRFSGSGSGTDFTLTISSLEPEDFAVYFCQQSKEVPYTFGGGTKVEIKGGGSGGGGQVQLVESGGGVVQPGRSLRLSCAASGFTFSSYTMHWVRQAPGKGLEWVTFISYDGSNKHYADSVKGRFTVSRDNSKNTLYLQMNSLRAEDTAIYYCARTGWLGPFDYWGQGTLVTVSSGGCGGGKVAACKEKVAALKEKVAALKEKVAALKE
notes: Four-chain Fc Region-containing diabody, two PD-1 sites (PD-1 mAb 6-ISQ) and two CTLA-4 sites (CTLA-4 mAb 3), IgG4 Fc, E/K-coils
